Test results reported in paper PMC7949043, “Allosteric regulation of the nickel-responsive NikR transcription factor from Helicobacter pylori”.
Where a chain is given by its changes, count along the chain named.

What was measured:
[1] = target: T1, HpNikR (Helicobacter pylori G27 (strain from …, UniProt A1YSQ9 1-148)); experiment: fluorescence anisotropy; Ni(II) 1.2 eq per monomer; Hill n = 1.8 ± 0.1; FA: 5 nM labeled DNA, 20 mM Tris pH 7.6, 100 mM NaCl, 3 mM MgSO4, temperature not stated (metal loading at room temperature); 19F-NMR: same buffer with 10% D2O, 400-900 uM monomer, DNA 1 eq per tetramer, variable temperature from 4 C; conditions: protein: recombinant; tags: none; chain copies: 4; label: fluorescein at central T in the spacer of strand 1 (printed [F] after T14); blunt
T1 sequence: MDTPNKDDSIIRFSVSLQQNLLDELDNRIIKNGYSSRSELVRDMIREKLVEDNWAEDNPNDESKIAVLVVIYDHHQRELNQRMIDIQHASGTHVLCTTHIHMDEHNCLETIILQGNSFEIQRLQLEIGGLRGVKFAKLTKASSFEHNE

[2] = target: T1, HpNikR; experiment: fluorescence anisotropy; Ni(II) 1.2 eq per monomer; Hill n = 1.9 ± 0.2; FA: 5 nM labeled DNA, 20 mM Tris pH 7.6, 100 mM NaCl, 3 mM MgSO4, temperature not stated (metal loading at room temperature); 19F-NMR: same buffer with 10% D2O, 400-900 uM monomer, DNA 1 eq per tetramer, variable temperature from 4 C; conditions: protein: recombinant; tags: none; chain copies: 4; label: fluorescein at central T in the spacer of strand 1 (printed [F] after T14); blunt

B1: ureA-F (32 bp ureA promoter) (dsDNA)
DNA 1: ATATAACACTAATTCATTTTAAATAATAATTA
DNA 2: TAATTATTATTTAAAATGAATTAGTGTTATAT
[1]
  Kd: 4.5 ± 0.6 nM

B2: ureA-perf-F (32 bp) (dsDNA)
DNA 1: B1 DNA 1 with A6T, C7T, C9T
DNA 2: B1 DNA 2 with G24A, G26A, T27A
[2]
  Kd: 4.7 ± 0.4 nM
